From patent publication US20130330362A1 (HEFEI TAIRUI BIOTECHNOLOGY, published 2013)

Biological target: T1, Epidermal Growth Factor Receptor (EGFR) protein (UniProt P00533 25-1210, limits assumed)
T1 construct: Bought protein; also called EGFR proteins; antigen EGFR
Experiment: SPR, Biacore3000, CM5 chip, HBS-EP pH 7.4, mean of three runs
Method: The binding affinity between antibody and EGFR was assayed with Biacore3000 equipment. The EGFR proteins diluted with 10 mmol/L NaAc and having different pH (4.0, 4.5, 5.0 and 5.5) were formulated, and were pre-concentrated on CM5 chip to select the NaAc diluted protein with optimum pH. […] The binding affinities were computed with the software attached by Biacore3000.

- Kd: 2.75 nM
B1: anti-EGFR humanized antibody L4-H3 (antibody, human IgG1, kappa, V domains shown)
VH: VKLLEQSGAEVKKPGASVKVSCKASGFSLTNYGVHWVRQAPGQRLEWMGVIWSGGNTDYNTPFTSRVTITRDTSATTAYMGLSSLRPEDTAVYYCARALTYYDYEFAYWGQGTLVTVSS
VL: ELVMTQSPSSLSASVGDRVNIACRASQSIGTNIHWYQQKPGKAPRLLIKYASESISGVPSRFSGSGSGTDFTLTISSLQPEDFAIYYCQQNNNWPTTFGGGTKVEIKR
notes: also called antibody of the present invention; the antibody
